# Reference: PMC6599478 (Mucosal immunology, 2019)
# Molecular target: recombinant full length Tenascin-C, large isoform (TNC-L) (human, UniProt P24821 23-2201)
# Test: ELISA
# recombinant full length Tenascin-C, large isoform (TNC-L), sequence (P24821 23-2201): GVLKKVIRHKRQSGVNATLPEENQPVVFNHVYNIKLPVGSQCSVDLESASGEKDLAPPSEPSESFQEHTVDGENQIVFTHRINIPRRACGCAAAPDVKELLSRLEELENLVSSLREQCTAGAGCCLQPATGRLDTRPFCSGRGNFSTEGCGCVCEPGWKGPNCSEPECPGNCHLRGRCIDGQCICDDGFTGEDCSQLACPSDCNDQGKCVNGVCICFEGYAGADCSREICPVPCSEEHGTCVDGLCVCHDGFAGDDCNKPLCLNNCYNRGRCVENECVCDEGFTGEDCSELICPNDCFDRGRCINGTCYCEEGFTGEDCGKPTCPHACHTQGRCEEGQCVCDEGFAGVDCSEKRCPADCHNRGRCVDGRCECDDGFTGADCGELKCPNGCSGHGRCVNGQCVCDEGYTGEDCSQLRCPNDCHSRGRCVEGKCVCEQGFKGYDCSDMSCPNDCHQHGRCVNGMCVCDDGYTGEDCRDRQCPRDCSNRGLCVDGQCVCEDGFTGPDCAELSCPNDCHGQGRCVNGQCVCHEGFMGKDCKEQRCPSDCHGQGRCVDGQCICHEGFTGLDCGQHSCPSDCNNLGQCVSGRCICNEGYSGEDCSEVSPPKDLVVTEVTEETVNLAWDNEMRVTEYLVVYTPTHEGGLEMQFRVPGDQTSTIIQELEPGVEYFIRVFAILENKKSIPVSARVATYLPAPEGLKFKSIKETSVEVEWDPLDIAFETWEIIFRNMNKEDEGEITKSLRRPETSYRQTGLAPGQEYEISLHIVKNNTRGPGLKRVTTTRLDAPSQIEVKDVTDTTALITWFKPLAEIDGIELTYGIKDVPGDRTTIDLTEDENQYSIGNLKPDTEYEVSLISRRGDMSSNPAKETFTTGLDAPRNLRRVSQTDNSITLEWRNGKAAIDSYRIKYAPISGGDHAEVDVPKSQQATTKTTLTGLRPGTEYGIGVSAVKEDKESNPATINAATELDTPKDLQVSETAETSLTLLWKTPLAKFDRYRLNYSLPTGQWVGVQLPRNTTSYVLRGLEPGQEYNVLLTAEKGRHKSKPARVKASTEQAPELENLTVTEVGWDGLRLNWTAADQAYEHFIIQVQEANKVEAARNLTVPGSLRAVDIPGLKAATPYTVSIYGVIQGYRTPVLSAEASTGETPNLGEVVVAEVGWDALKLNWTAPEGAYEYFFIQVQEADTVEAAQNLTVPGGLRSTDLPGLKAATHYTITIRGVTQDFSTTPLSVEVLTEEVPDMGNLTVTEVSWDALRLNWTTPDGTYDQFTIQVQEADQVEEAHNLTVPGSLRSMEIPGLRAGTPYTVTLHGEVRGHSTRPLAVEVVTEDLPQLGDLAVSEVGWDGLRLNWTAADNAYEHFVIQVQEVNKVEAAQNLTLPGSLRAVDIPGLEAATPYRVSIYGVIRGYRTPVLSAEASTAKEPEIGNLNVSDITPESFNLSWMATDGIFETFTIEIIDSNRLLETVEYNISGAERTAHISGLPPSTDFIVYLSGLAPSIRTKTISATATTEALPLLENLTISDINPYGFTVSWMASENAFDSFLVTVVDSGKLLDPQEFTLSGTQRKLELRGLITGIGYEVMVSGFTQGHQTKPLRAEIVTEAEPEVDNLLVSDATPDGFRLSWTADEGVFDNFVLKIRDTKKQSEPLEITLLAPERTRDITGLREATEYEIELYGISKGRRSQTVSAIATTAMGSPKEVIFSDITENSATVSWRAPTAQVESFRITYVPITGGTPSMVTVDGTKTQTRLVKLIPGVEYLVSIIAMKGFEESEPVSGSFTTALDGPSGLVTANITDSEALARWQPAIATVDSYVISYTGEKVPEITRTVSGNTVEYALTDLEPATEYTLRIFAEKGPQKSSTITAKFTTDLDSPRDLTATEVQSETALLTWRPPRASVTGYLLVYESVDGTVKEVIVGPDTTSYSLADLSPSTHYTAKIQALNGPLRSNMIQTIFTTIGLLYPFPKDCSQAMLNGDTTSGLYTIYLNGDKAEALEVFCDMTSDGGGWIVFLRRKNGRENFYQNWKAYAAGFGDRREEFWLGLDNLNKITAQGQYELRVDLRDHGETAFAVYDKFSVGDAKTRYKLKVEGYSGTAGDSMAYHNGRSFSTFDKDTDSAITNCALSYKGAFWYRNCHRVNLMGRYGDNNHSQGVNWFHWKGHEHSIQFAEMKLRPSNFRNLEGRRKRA
row,Binder,binding result
1,"TRPNYNKRKRIHIGPGRAFYTTKNIIGTIRQAH [MN V3 complete V3 loop peptide (33 amino acid linear peptide, wild type)]",binds
2,TRPNYNKRKRIHIGPGRAFYTTAAIIGTIRQAH [MNV3 321/322 Mutant peptide (K321A/N322A)],binds
3,TRPNYNKRKRIHIGPGRAFYTTKNIIGAARQAH [MNV3 326/327 Mutant peptide (T326A/I327A)],binds
4,TRPNYNKRKRIHIGPGRAFYTTAAIIGAARQAH [MNV3 Quad Mutant peptide (K321A/N322A/T326A/I327A)],binds
